B1: Type VI secretion system spike protein VgrG3 (Vibrio cholerae), Q9KN42 (parent)
chain: MARLQFQLKVDGLEDESLVVRGFEGQESLSDSVWRCEPCYGFRYQVDLASALSNLTAEQFVDQTAHLTILRDGQVVQQINGIVRQLSKGDTGHRHTFYSLTLVPALERLSLRSNSRIFQQQSVPEIISILLQEMGIEDYAFALKRECAQREFCVQYRETDLQFLHRIAAEEGLVYSHLHEAQKHTLLFTDSSDSQPKLAKPVPYNALAGGEINLPYVVDLQFKTTAQVSHTELKDYSFKKPAYGFTQRTQGKDIAYQQPNYEHFDAPGRYKDDANGKAFSQIRLEYLRRDALLADAKSDEPLLLAGVRFDLQDHLDHAMNRDWLVVQANHQGTQPQALQEEGGSGATTYSNQLKLIPAHITWRARPCAKPQVDGPMIATVVGPQGEEIYCDNFGRVKVHFPWDRYSSSNEKSSCWVRVAQEWAGSQYGSMAIPRVGHEVIVSFLNGDPDQPIITGRTYHATNTAPYALPDHKTKTVLRTETHQGQGYNELSFEDQAGSEQILLHAQKDWDALIEHDHTEVIRHDQHLTVDNDRFTRIQRNQHLTVEGEVRSKIALDSSHEVGASLQHKVGQRIAVEAGKEISLKSGAKIVVEAGAELTLKAGGSFVKVDAGGVHLVGPAINLNAGGSAGSGSAYGGQLAAAPRMLAQAKPVAELVQPDIAASMQSGAARVIDVASLPTMMPSSANNTANDEPVAEEKTPERILKSDLLKPSDELEKLAKRQASAYRQGNHSDEVKLLQEALIKLGFDLGKAGADGDFGSKTKTAIEQFQKSYQPSHQTHPSYSIGAVDGIVGKGTLLALDEALMDGWVYENNIYQIWPLGKTSEKYESAGRGPGVISTGNGDYGGASYGCYQMSSNLGVVQKYIQSSKFKEFFSGLNPATKEFNVVWQDIASRYPQEFREEQHQFIKRTHYDIQIGHLRGKGLLFEHNRAAVHDLIWSTSVQFGGRTNLIFNALNGQNMESMTDKDIIILVQDYKLVNTERLFKSSPSWWSDLKKRAVSEKKALLELEIDGLEVDIK
partner: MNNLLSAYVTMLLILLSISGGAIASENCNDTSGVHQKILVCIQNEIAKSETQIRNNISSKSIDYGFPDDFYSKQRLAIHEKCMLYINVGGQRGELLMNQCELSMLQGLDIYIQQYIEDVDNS

Variants of: B1
Conditions: with tsiv3_vibch tsiV3, Q9KN41
With Y826A the “effect of a mutation on the interaction” value was “decreasing interaction”.

Variants of: B1
Conditions: with tsiv3_vibch tsiV3, Q9KN41
Remark: another data set of the same source
With V941A the “effect of a mutation on the interaction” value was “decreasing interaction”.

Variants of: B1
Conditions: with tsiv3_vibch tsiV3, Q9KN41
Remark: another data set of the same source
With Q942A the “effect of a mutation on the interaction” value was “decreasing interaction”.

Variants of: B1
Conditions: with tsiv3_vibch tsiV3, Q9KN41
Remark: another data set of the same source
In the case of D842A, the “effect of a mutation on the interaction” value is reported as “decreasing interaction”.

Variants of: B1
Conditions: with tsiv3_vibch tsiV3, Q9KN41
Remark: another data set of the same source
With L982A the “effect of a mutation on the interaction” value was “decreasing interaction”.

Variants of: B1
Conditions: with tsiv3_vibch tsiV3, Q9KN41
Remark: another data set of the same source
In the case of R996A, the “effect of a mutation on the interaction” value is reported as “decreasing interaction”.
